# Laboratory results taken from patent US8586570B2, “Sox-based kinase sensor” (Massachusetts Institute of Technology, priority 2006, dated 2013).
# Assay: Fluorescence increase, phosphopeptide vs unphosphorylated peptide at 485 nm
# Type: physicochemical
# Conditions: phosphopeptide / unphosphorylated peptide intensity at 485 nm, generally 10 mM Mg2+
# Description: Fluorescence experiments were performed on a Fluoromax 3 from Jobin Yvon. 5 nm emission and excitation slit widths were used. For all experiments, an excitation wavelength of 360 nm was used. Enzyme assays were performed by monitoring emission at 485 nm.
# After peptide characterization, emission spectra were obtained for unphosphorylated and phosphorylated peptides under appropriate conditions. The spectra were generally acquired in the presence of 10 mM Mg^2+(although lower Mg^2+concentrations can and have been used as well) and either 0, 0.1 or 1 mM ATP in a preselected buffer (usually 20 mM HEPES, pH 7.4). Relying on the emission spectra the fold fluorescence differences were measured by dividing the fluorescence intensity of the phosphopeptide by the fluorescence intensity of its unphosphorylated counterpart at 485 nm. FIG. 2 depicts the fluorescence spectra of the phosphorylated and unphosphorylated peptides in the appropriate assay mixture: (A) emissions scans of PKCβI-1 (10 μM), 10 mM Mg(II), 3×; (B) emissions scans of PKCβI-1 (10 μM), 10 mM Mg(II), 0 mM ATP, 3×.; (C) fluorescence difference for PKCβI-1 (10 μM), 10 mM Mg(II), 3×; (D) fluorescence increase for PKCβI-1 (10 μM) at 10 mM Mg (II).
substance,measurement,value
"Ac-RRR-C(Sox)-ASFRRKA-CONH2 [PKCα-S10(P10), Sox chemosensor with extended recognition domain for PKCα]",Fluorescence Increase,3.9 x
